Data: US20220025071A1
Values joined by “and” are separate entries in the source; they are usually repeats but may differ in a detail not shown here. Equal entries are not always repeated.

Key:
[1] = molecular target: SARS-CoV-2 spike protein, N439K variant (pseudovirus RVP-703) (SARS-CoV-2) (UniProt P0DTC2); test: cell-based or functional assay
[2] = molecular target: SARS-CoV-2 spike protein, South African Δ3 B.1.351 variant (pseudovirus RVP-724) (SARS-CoV-2) (UniProt P0DTC2); test: cell-based or functional assay

## REGN10987 (Imdevimab, biosimilar version) (antibody)
[1]
  EC50 (pM) Neutralization, N439K: 2260 pM and 2220 pM
  fold less potent than REGN10933 in pseudovirus neutralization: 1000 fold
[2]
  EC50 (pM) Neutralization, South Africa B.1.351: 2.48 pM and 2.37 pM
